From patent US20240392024A1 (SHANGHAI CELGEN BIO PHARMACEUTICAL, published 2024) come the findings set out here.

The target in assay [1] is T1, WT.
T1 construct: also called T cells of wild-type (WT) mice; mouse TNFR2 on the cell membrane
T1 chain: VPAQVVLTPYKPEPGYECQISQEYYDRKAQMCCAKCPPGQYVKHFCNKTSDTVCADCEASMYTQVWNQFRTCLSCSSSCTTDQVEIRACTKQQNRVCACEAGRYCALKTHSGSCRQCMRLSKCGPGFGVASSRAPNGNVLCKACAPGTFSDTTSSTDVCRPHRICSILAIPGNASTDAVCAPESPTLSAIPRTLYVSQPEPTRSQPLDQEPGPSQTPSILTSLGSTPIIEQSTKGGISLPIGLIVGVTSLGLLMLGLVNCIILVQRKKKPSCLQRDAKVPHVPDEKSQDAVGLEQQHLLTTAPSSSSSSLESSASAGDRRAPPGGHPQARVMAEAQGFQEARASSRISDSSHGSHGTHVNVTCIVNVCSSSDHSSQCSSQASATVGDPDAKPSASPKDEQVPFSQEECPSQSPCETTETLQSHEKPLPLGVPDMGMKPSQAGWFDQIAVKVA
As to the kind of experiment: flow cytometry on ConA-stimulated spleen cells of WT mice, mCD3+ T cells. How it is done:
(§1) The cells were stained again with Cy-3 anti-human IgG and FITC anti-mCD3 (BD, 555274) after washing, under the same incubation conditions. After washing, the detection was performed.
Background: A flow cytometer gives signals particle by particle.

For assay [2], the target named is T2, TNFR2-His (Sino Biological, 10417-H08H, NP_001057.1 Met1-Asp257, with multi-histidine tag expressed on … (human, UniProt P20333 23-257)).
T2 construct: range 1-257; Bought protein; also called recombinant human TNFR2 protein; TNFR2-His antigen; not shown: C-terminal multi-histidine tag
T2 sequence (looked up): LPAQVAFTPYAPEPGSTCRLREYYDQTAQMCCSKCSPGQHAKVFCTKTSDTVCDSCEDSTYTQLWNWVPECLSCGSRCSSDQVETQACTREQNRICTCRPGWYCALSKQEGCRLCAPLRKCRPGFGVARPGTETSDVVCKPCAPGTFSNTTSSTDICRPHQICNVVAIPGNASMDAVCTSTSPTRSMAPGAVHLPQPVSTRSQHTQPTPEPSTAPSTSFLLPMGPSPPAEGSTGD
As to the kind of experiment: BLI, antibody captured on AHC probe, TNFR2 in solution. As for the experimental part:
The GATOR (ProbeLife) detection instrument and AHC (Pall, 185064), Human antibody Capture probe were used to detect the dissociation constant (Kd) of human-mouse chimeric TNFR2 monoclonal antibody.
The human-mouse chimeric TNFR2 monoclonal antibodies were diluted to 50 nM in binding buffer (Q buffer [PBS (10 mM PH7.4)+0.02% Tween 20+0.2% BSA). The recombinant human TNFR2 protein was diluted in Q buffer with a 2-fold gradient starting from the highest concentration of 100 nM. The kinetic association assay was conducted by placing the antibody capture sensor in the continuously diluted antigen solutions mentioned above. The Octet Data Acquisition software was pened and the New Kinetics Experiment-Basic Kinetics mode was selected.
Background: Biolayer interferometry detects binding as a change in optical thickness at a sensor tip.

The target of assay [3] is T3, human TNFR2 on the cell membrane (human, UniProt P20333 23-461).
T3 construct: whole, on cells; One molecule for all cell formats; also called TNFR2-CHO cells; CHO-TNFR2
T3 sequence (looked up): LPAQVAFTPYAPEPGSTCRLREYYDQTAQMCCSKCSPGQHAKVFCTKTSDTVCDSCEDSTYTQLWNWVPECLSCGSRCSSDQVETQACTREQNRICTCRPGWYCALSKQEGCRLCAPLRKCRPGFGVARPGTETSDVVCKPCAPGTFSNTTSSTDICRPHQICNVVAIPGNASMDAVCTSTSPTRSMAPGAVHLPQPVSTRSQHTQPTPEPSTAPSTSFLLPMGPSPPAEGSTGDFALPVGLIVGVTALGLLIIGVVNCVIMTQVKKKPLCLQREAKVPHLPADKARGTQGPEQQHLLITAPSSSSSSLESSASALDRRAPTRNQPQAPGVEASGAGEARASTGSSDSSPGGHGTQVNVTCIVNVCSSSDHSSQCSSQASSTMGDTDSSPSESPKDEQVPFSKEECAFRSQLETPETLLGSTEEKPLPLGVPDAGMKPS
Briefly: flow cytometry on ConA-stimulated spleen cells of hTNFR2-KI mice, mCD3+ T cells. How it is done: as §1

Assay [4] has as its target T3, human TNFR2 on the cell membrane. Briefly: flow cytometry, Jurkat-TNFR2 cells. As for the experimental part: Purified human-mouse monoclonal antibodies against TNFR2 were co-cultured with TNFR2 positive Jurkat cells (Jurkat cells were transfected with pcDNA3.4-TNFR2 plasmid using conventional methods, and after screening, stable and highly expressed TNFR2 Jurkat cell lines were obtained) and stained. The antibody binding intensity was analyzed by flow cytometry. The specific steps are as follows: Jurkat-TNFR2 was counted, centrifuged, resuspended, then added to a 96-deep well plate, and the supernatant was discarded. The anti-TNFR2 antibody was gradient diluted, and added to the 96-deep well plate, After incubation and wash, the secondary antibody FITC-anti-human IgG (Abcam: 6854) was added, and the samples were detected using Beckman CytoFLEX.

The target of assay [5] is T2, TNFR2-His (Sino Biological, 10417-H08H, …). As to the kind of experiment: ELISA, coated TNFR2-His. The method in brief: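 EC50 values come from antibody dilution series tested by ELISA. Plates were coated with recombinant human TNFR2 bearing a C-terminal His tag and blocked before the serially diluted antibodies were added. Binding was detected with an enzyme-labelled anti-IgG secondary antibody, TMB development and a microplate reader.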

Assay [6] has as its target T3, human TNFR2 on the cell membrane. As to the kind of experiment: flow cytometry on human PBMC, CD3+ T cells. As for the experimental part: Purified anti-human TNFR2 human-mouse chimeric monoclonal antibodies were co-cultured with PBMC cells (Oricells) and stained. The binding of the antibody was analyzed by flow cytometry. The specific steps are as follows: PBMC cells (Oricells) were counted, centrifuged, resuspended, then added to a 96-deep well plate, and the supernatant was discarded. Diluted anti-TNFR2 monoclonal antibodies were added.

B1: human-mouse chimeric TNFR2 monoclonal antibody 12E12-hFc (antibody, V domains shown)
VH: EVQLQQSGAELVKPGASVKLSCTVSGFNIKDFYIHWVKQRPEQGLEWIGRVDPEDGNTEYAPNFQDRATMTTDTSSNTAYLQLSSLTSVDTAVYYCSTWDGFSYFDYWGLGTTLTVSS
VL: QAVVTQESALTTSPGETVTLTCRSSTGPVTTNNYANWVQEKPDHLFTGLIGGTNDRAPGVPARFSGSLIGDKTALTITGTQTEDEAVYFCALWYRNHWVFGGGTKLTVL
notes: Mouse V regions of clone 12E12 with human constant regions; also called human-mouse chimeric 12E12 antibody
As for B1, in assay [1], the binding result is reported as “no binding”; the “percent of cells in the upper right quadrant (Q2-UR, mCD3+ and anti-hIgG+)” value came out at 0.83%. In assay [2], the Kd (usually the concentration at which binding is half-saturated) turned out to be 3.9 nM; the koff (as a rule, a measure of how fast the partners let go of each other) is 0.00304 s⁻¹; the kon (usually the rate constant with which the complex forms) came out at 780000 M⁻¹ s⁻¹. In addition, the “percent of cells in the upper right quadrant (Q2-UR, mCD3+ and anti-hIgG+)” value in assay [3] came to 46.2%. The EC50 (usually the concentration needed to bring the measured effect to its halfway point) in assay [4] was found to be 0.012 µg/mL. Moreover, a half-maximal effect in assay [5] (EC50) was put at 0.265 nM. In addition, in assay [6], the “percent of cells in the upper right quadrant (Q1-UR, CD3+ and anti-human IgG Fc+)” value came out at 45.6%.

B2: human-mouse chimeric TNFR2 monoclonal antibody 27F6-hFc (antibody, V domains shown)
VH: EVQLQQSGTVLARPGASVKMSCKTSGYTFTSYWMHWVKQRPGQGLEWIGTIYPGNSDTSYNQKFKGKAKLTAVTSASTAYMELNSLTNEDSAVFYCTRENLLLRSYFFDYWGQGTTLTVSS
VL: DIVMTQSPASLAVSLGQRATISCKASQSVDYDGDSYLNWYQQKPGQPPKLLIYAASNLPSGIPARFSGSGSGTDFTLNIHPVEEEDAATYYCQQSNEDPRTFGGGTKLEIK
notes: Mouse V regions of clone 27F6 with human constant regions
Regarding B2, in assay [1], the binding result was “no binding”; the “percent of cells in the upper right quadrant (Q2-UR, mCD3+ and anti-hIgG+)” value is 1.04%. Also, in assay [2], the affinity, expressed as Kd, was 9.38 nM; the koff amounted to 0.00761 s⁻¹; the kon is 811000 M⁻¹ s⁻¹. The “percent of cells in the upper right quadrant (Q2-UR, mCD3+ and anti-hIgG+)” value in assay [3] came out at 36%. The EC50 in assay [4] is 0.036 µg/mL. This molecule gave an EC50 in assay [5] of 0.278 nM. In assay [6], the “percent of cells in the upper right quadrant (Q1-UR, CD3+ and anti-human IgG Fc+)” value came out at 42.3%.
